Measurements reported in patent US20190177416A1 (NANOMAB TECHNOLOGY, published 2019).

What was measured:
[1] = target: T1, human PD-L1 protein (coated antigen) (human, UniProt Q9NZQ7 19-238, limits assumed); assay: PE-ELISA, crude extract on coated PD-L1
T1 construct: Construct not described; also called PD-L1 antigen; antigenic protein PD-L1
Description: (1) From the cell culture dishes containing phage after 3-4 rounds of screening in Example 2, 1000 individual colonies were selected and inoculated into TB medium containing 100 μg/ml of ampicillin (1 liter of TB medium contains 2.3 g of potassium dihydrogen phosphate, 12.52 g of dipotassium hydrogen phosphate, 12 g of peptone, 24 g of yeast extract, 4 ml of glycerol), after growth to log phase, add a final concentration of […] of IPTG, culture at 28° C. overnight. (2) The crude antibody was obtained by the infiltration method, and the antibody was transferred to an antigen-coated ELISA plate and placed at room temperature for 1 hour. (3) Unbound antibody was washed away with PBST, and a mouse anti-HA tag antibody (anti-mouse anti-HA antibody, purchased from Beijing Kangwei Century Biotechnology Co., Ltd.) was added and placed at room temperature for 1 hour. (4) Unbound antibody was washed away with PBST, and anti-mouse alkaline phosphatase conjugate (goat anti-mouse alkaline phosphatase-labeled antibody, purchased from Amytech Co., Ltd.) was added and placed at room temperature for 1 hour. (5) Wash the unbound antibody with PBST, add alkaline phosphatase coloring solution, and read the absorbance at 405 nm on an ELISA apparatus. (6) When the OD value of the sample well is more than 3 times the OD value of the control well (Ratio+/−>3), it is judged as a positive clone hole. (7) The bacteria of the positive clone well were shaken in a LB liquid containing 100 μg per ml to extract a plasmid and perform sequencing.

[2] = target: T2, PD-L2 (coated antigenic protein) (UniProt Q9BQ51 20-220, limits assumed); assay: ELISA, purified nanobody 10 ug/mL on coated PD-L2, anti-HA detection
T2 sequence (looked up): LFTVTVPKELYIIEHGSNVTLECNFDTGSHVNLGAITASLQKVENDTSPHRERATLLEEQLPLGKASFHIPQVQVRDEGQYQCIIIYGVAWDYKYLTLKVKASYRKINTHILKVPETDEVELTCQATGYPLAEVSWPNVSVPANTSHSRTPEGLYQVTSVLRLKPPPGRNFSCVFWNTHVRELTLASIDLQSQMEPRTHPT
Description: (§1) (1) Coated antigenic proteins PD-L1 and PD-L2: 0.5 μg per well (5 μg/mL, 100 μL), packaged NaHCO₃ (100 mM, pH8.2) was used as a blank control and overnight at 4° C. (2) Wash the cells three times with PBST the next day, add 200 μL of 1% BSA to block at room temperature for 2 hours. (3) Each purified nanobody was diluted to 10 μg/mL, and 100 pt of each of the purified nanobodies was incubated with the coated PD-L1, PD-L2 and the blank control group, and reacted at room temperature for 1 hour. (4) Unbound antibody was washed away with PBST, and 100 μL of mouse anti-HA tag antibody (1:2000 dilution) was added and placed at room temperature for 1 hour. (5) Unbound antibody was washed away with PBST, and anti-mouse alkaline phosphatase conjugate (1:2000 dilution) was added and placed at room temperature for 1 hour. (6) Wash the unbound antibody with PBST, add alkaline phosphatase coloring solution, and read the absorbance at 405 nm on an ELISA apparatus. The specificity of the nanobody was judged based on the absorption value.

[3] = target: T1, human PD-L1 protein (coated antigen); assay: ELISA, purified nanobody 10 ug/mL on coated PD-L1, anti-HA detection
Description: as §1

[4] = target: T1, human PD-L1 protein (coated antigen); assay: ELISA, purified nanobody 10 ug/mL, coated PD-L1 against coated PD-L2
Description: as §1

T1 sequence (Q9NZQ7 19-238 limits assumed): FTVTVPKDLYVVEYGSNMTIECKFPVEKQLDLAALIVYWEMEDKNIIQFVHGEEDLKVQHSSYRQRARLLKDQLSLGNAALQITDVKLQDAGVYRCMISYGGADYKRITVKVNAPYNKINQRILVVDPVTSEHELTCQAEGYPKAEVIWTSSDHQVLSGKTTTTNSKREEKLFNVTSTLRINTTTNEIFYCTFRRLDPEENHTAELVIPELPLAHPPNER

B1: SEQ ID NO 20 (VHH)
VHH: QVQLQESGGGLVQPGGSLRLSCAASGFTGSIYAMSWVRQAPGKGLEWVSTISSSGGRRFYADSVKGRFTISRDNAKNTLYLQLNSLKTEDTAMYYCARCSDIYCDNGASYRGQGTQVTVSS
notes: pMECS-expressed; also called VHH numbered 20
[1]
  OD ratio (experimental group (A405 nm)/control group (A405 nm)): > 20

B2: SEQ ID NO 58 (VHH)
VHH: QVQLQESGGGLVQPGGSLRLSCALSGFTSTIYAMSWVRQAPGKGLEWVSTINSDGGYRYYADSVKGRFTISRDNAKNTLYLQLNSPKTEDTAMYYCARCSDIYCYNGPSYRGQGTQVTVSS
notes: pMECS-expressed; also called VHH numbered 58
[1]
  OD ratio (experimental group (A405 nm)/control group (A405 nm)): > 20

B3: SEQ ID NO 74 (VHH)
VHH: QVQLQESGGGSVQAGGSLRLSCAASGFTGSIYAMSWVRQAPGKGLEWVSTISSSGGRRFYADSVKGRFTISRDNAKNTLYLQLNSLKTEDTAMYYCARCSDIYCDNGASYRGQGTQVTVSS
notes: pMECS-expressed; also called VHH numbered 74
[1]
  OD ratio (experimental group (A405 nm)/control group (A405 nm)): > 20

B4: SEQ ID NO 70 (VHH)
VHH: QVQLQESGGGLVQPGGSLRLSCAASGFTFSIRAMSWVRQAPGKGLEWVSTINSGGDSRYYADSVKGRFTISRDNAKNTMYLQLNSLKTEDTAMYYCVRCSDIYCYNGASYRGQGTQVTVSS
notes: pMECS-expressed; also called VHH numbered 70
[1]
  OD ratio (experimental group (A405 nm)/control group (A405 nm)): > 20

B5: SEQ ID NO 61 (VHH)
VHH: QVQLQESGGGLVQPGGSLRLSCAASGFDFSSRAMSWVRQAPGKGLEWVSTINSGGGSRYYADSVKGRFTTSRDNAKNTLALQLNSLKTEDTAMYYCARCSDIYCDNGAWYRGQGTQVTVSS
notes: pMECS-expressed; also called VHH numbered 61
[1]
  OD ratio (experimental group (A405 nm)/control group (A405 nm)): > 20

B6: SEQ ID NO 45 (VHH)
VHH: QVQLQESGGGLVQPGGSLRLSCAASGFTFSIKAMSWVRQAPGKGLEWVSTIDSGGGRRYYADSVKGRFTISRDNAKNTLYLQLSSLKTEDTAMYFCARCSDIYCYNGASYRGQGTQVTVSS
notes: pMECS-expressed; also called VHH numbered 45
[1]
  OD ratio (experimental group (A405 nm)/control group (A405 nm)): > 20

B7: SEQ ID NO 3 (VHH)
VHH: QVQLQESGGGSVQTGGSLRLSCAASTSLYSYNYMAWFSQAPGKGREGVAAVYVGDGRPYYADSVKGRFTISLDSAKNAVYLQMNSLKPEDTAMYYCAAAPGPLSHNYWYTSANYDYWGQGTQVTVSS
notes: pMECS-expressed; also called anti-PD-L1 nanobody No. 3; VHH numbered 3
[2]
  ELISA absorbance (A405 nm): 0.112 A405 nm
[3]
  ELISA absorbance (A405 nm): 2.36 A405 nm
[1]
  OD ratio (experimental group (A405 nm)/control group (A405 nm)): > 20
[4]
  OD ratio (PD-L1/PD-L2): 21

B8: SEQ ID NO 7 (VHH)
VHH: QVQLQESGGGSVQTGGSLRLSCACSTSIYSTNYMAWFSQAPGKGREGVAAVYIGDGRPYYADSVKGRFTISLDSAKNTVYLQMNSLKPEDTAMYYCAAAPGPLSRNYWYTSANYDYWGQGTQVTVSS
notes: pMECS-expressed; also called anti-PD-L1 nanobody No. 7; VHH numbered 7
[2]
  ELISA absorbance (A405 nm): 0.119 A405 nm
[3]
  ELISA absorbance (A405 nm): 3.51 A405 nm
[1]
  OD ratio (experimental group (A405 nm)/control group (A405 nm)): > 20
[4]
  OD ratio (PD-L1/PD-L2): 29.5

B9: SEQ ID NO 85 (VHH)
VHH: QVQLQESGGGSVQTGGSLRLSCAASTSIYSNNYMAWFSQAPGKGREGVAAVYIADDRPYYADSVKGRFTISLDSAKNTVYLQMNSLKPEDTAMYYCAAAPGPLSRNYWYTSANYDYWGQGTQVTVSS
notes: pMECS-expressed; also called VHH numbered 85
[1]
  OD ratio (experimental group (A405 nm)/control group (A405 nm)): > 20

B10: SEQ ID NO 86 (VHH)
VHH: QVQLQDSGGGSVQTGGSLRLSCAASTSIYSINYMAWFSQAPGKGREGVAAVYTGDGRPYYADSVKGRFTISLDSAKNTVYLQMNSLKPEDTAMYYCAAAPGPLSRNYWYTSANYDYWGQGTQVTVSS
notes: pMECS-expressed; also called VHH numbered 86
[1]
  OD ratio (experimental group (A405 nm)/control group (A405 nm)): > 20

B11: SEQ ID NO 4 (VHH)
VHH: QVQLQESGGGSVQTGGSLRLSCAASPSIYSANYMAWFSQAPGKGREGVAAVYIGDGRPYYADSVKGRFTISLDSAKNTVYLQMNSLKPEDTAMYYCAAAPGPLGHNYWYTSANYDYWGQGTQVTVSS
notes: pMECS-expressed; also called anti-PD-L1 nanobody No. 4; VHH numbered 4
[2]
  ELISA absorbance (A405 nm): 0.137 A405 nm
[3]
  ELISA absorbance (A405 nm): 3.51 A405 nm
[1]
  OD ratio (experimental group (A405 nm)/control group (A405 nm)): > 20
[4]
  OD ratio (PD-L1/PD-L2): 25.6

B12: SEQ ID NO 83 (VHH)
VHH: QVQLQESGGGLVQTGGSLRLSCAASTSIYSNNYLAWFSQAPGKGREGVAAVYIGDGRPYYADSVKGRFPISLNSAQNKVYLQMNSLKPEDTAMYYCAAAPGPLSRNYWYTSANYDYWGQGTQVTVSS
notes: pMECS-expressed; also called VHH numbered 83
[1]
  OD ratio (experimental group (A405 nm)/control group (A405 nm)): > 20

B13: SEQ ID NO 84 (VHH)
VHH: QVQLQESGGGSVQTGGSLRLSCAASTSIDSNNYMAWFRQAPGKGREGVAAVYIDDGRPYYADSVKGRFTISLDSAKNTVYLQMNSLKPEDTAMYYCAAAPGPLSRHYWYTSANYDYWGPGTQVTVSS
notes: pMECS-expressed; also called VHH numbered 84
[1]
  OD ratio (experimental group (A405 nm)/control group (A405 nm)): > 20

B14: SEQ ID NO 18 (VHH)
VHH: QVQLQESGGGSVQAGGSLRLSCAASGYTYSSDGMGWFRQTPGKEREGVAAISPTGRRTEYADSVKGRFTISRDNNKNMLSLQMNSLKPEDTGMYYCAREGSWSFSLANSAVRSWGQGTQVTVSS
notes: pMECS-expressed; also called VHH numbered 18
[1]
  OD ratio (experimental group (A405 nm)/control group (A405 nm)): > 20

B15: SEQ ID NO 10 (VHH)
VHH: QVQLQESGGGSVQAGGSLRLSCTAPGFTSKTCAMRWYRQAPGKEREFVSAISTVGTTTYADSVKGRFIISKDEAKDTVYLQINSLKPEDTAMYSCKTFACRHCIGQSCRTEPDYWGQGTQVTVSS
notes: pMECS-expressed; also called anti-PD-L1 nanobody No. 10; VHH numbered 10
[2]
  ELISA absorbance (A405 nm): 0.117 A405 nm
[3]
  ELISA absorbance (A405 nm): 3.34 A405 nm
[1]
  OD ratio (experimental group (A405 nm)/control group (A405 nm)): > 20
[4]
  OD ratio (PD-L1/PD-L2): 28.6

B16: SEQ ID NO 50 (VHH)
VHH: QVQLQESGGGLVQPGGSLRLSCIASGFTFSIMAMSWVRQAPGKGLEWVSTINSDGGKTYYADSVKGRFTISRDNAKNTLYLQLNSLRTEDMAMYYCRRCADIYCSGSGGWTGQGTQVTVSS
notes: pMECS-expressed; also called VHH numbered 50
[1]
  OD ratio (experimental group (A405 nm)/control group (A405 nm)): > 20

B17: SEQ ID NO 72 (VHH)
VHH: QVQLQESGGGLVQPGGSLRLSCEASGLPFSIIAMSWVRQAPGKGLEWVSTINSDGGTTHYADSVKGRFTISRDNAKNTLYLQLNSLRTEDTAMYYCRRCTDIYCSGSGGWTGQGTQVTVSS
notes: pMECS-expressed; also called VHH numbered 72
[1]
  OD ratio (experimental group (A405 nm)/control group (A405 nm)): > 20

B18: SEQ ID NO 73 (VHH)
VHH: QVQLQESGGGLVQPGGSLRLSCEASGLPFSIIAMSWVRQAPGKGLEWVSTINSDGGTTHYADSVKGRFTISRDNAKNTLYLQLNSLRTEDTAMYYCRRCTDIYCSGFGGWTGQGTQVTVSS
notes: pMECS-expressed; also called VHH numbered 73
[1]
  OD ratio (experimental group (A405 nm)/control group (A405 nm)): > 20

B19: SEQ ID NO 79 (VHH)
VHH: QVQLQESGGGLVQPGGSLRLSCAASGLPFSIIAMSWVRQAPGKGIEWVSTINSGGGTTHYADSVKGRFTISRDNAKNTLYLQLNSLRTEDTAVYYCRRCADIYCSGSGGWTGLGTQVTVSS
notes: pMECS-expressed; also called VHH numbered 79
[1]
  OD ratio (experimental group (A405 nm)/control group (A405 nm)): > 20

B20: SEQ ID NO 65 (VHH)
VHH: QVQLQESGGGLVQPGGSLRLSCAASGFTFSILAMSWVRQAPGKGLEWISTINNSGGTTFYADSVKGRFTISRDNAKNTLYLQLNSLRTEDTAMYYCRRCTDIYCSLSGGWTGQGTQVTVSS
notes: pMECS-expressed; also called VHH numbered 65
[1]
  OD ratio (experimental group (A405 nm)/control group (A405 nm)): > 20

B21: SEQ ID NO 71 (VHH)
VHH: QVQLQESGGGLVQPGGSLRLSCAASGFTFSSYDMSWVRQAPGKGIEWVSVINSGGSNTDYADSVKGRFTISRDNAKNTLYLQMNSLKTEDTAVYYCATAWMGYSDYLDGIARGQGTQVTVSS
notes: pMECS-expressed; also called VHH numbered 71
[1]
  OD ratio (experimental group (A405 nm)/control group (A405 nm)): > 20

B22: SEQ ID NO 34 (VHH)
VHH: QVQLQESGGGSVQAGGSLRLSCAASGYTRSLYCMGWFRQAPGREREGVAHVYTGDGSPYYADSVKGRFTISQDNGESTLYLQMNNLKPEDTAMYYCAAGTSALSRPYGPISYGYWYWGQGTQVTVSS
notes: pMECS-expressed; also called VHH numbered 34
[1]
  OD ratio (experimental group (A405 nm)/control group (A405 nm)): > 20
